Like-named read-outs stand apart in the source and are kept apart here.
How the values were obtained:
[1] = target: T1, COVID S1 RBM Fc fusion (Antigen 2) (SARS-CoV-2, UniProt P0DTC2 437-508); assay: phage ELISA
S1 Fc fusion protein [2] = target: T2, S1 Fc fusion protein (SARS-CoV-2, UniProt P0DTC2 14-685); assay: phage ELISA
[3] = target: T3, COVID S1 RBD Fc fusion (Antigen 1) (SARS-CoV-2, UniProt P0DTC2 319-541); assay: phage ELISA
[4] = target: T1, COVID S1 RBM Fc fusion (Antigen 2); assay: phage ELISA; remark: listed apart in the source
S1 Fc fusion protein [5] = target: T2, S1 Fc fusion protein; assay: phage ELISA; remark: listed apart in the source
[6] = target: T3, COVID S1 RBD Fc fusion (Antigen 1); assay: phage ELISA; remark: listed apart in the source
[7] = target: T4, SARS-CoV-2 S1 (antigen of the Carterra SPR kinetics) (SARS-CoV-2, UniProt P0DTC2 16-685); assay: Carterra SPR
[8] = target: T5, COVID S1 RBM Fc fusion (Antigen 2) (SARS-CoV-2, UniProt P0DTC2 437-508); assay: phage ELISA
T5 construct: domain: RBM

[9] = target: T6, COVID S1 RBD Fc fusion (Antigen 1) (SARS-CoV-2, UniProt P0DTC2 319-541); assay: phage ELISA; remark: listed apart in the source
S1 Fc fusion protein [10] = target: T7, S1 Fc fusion protein (SARS-CoV-2, UniProt P0DTC2 14-685); assay: phage ELISA
T7 construct: domain: S1

[11] = target: T4, SARS-CoV-2 S1 (antigen of the Carterra …); assay: Carterra SPR; remark: listed apart in the source
[12] = target: T5, COVID S1 RBM Fc fusion (Antigen 2); assay: phage ELISA; remark: listed apart in the source
[13] = target: T6, COVID S1 RBD Fc fusion (Antigen 1); assay: phage ELISA; remark: listed apart in the source
S1 Fc fusion protein [14] = target: T7, S1 Fc fusion protein; assay: phage ELISA; remark: listed apart in the source

Binder	ELISA fold over background [1]	ELISA fold over background (S1 Fc fusion protein [2])	ELISA fold over background [3]	ELISA fold over background [4]	ELISA fold over background (S1 Fc fusion protein [5])	ELISA fold over background [6]	koff [7]	kon [7]	ELISA fold over background [8]	ELISA fold over background [9]	ELISA fold over background (S1 Fc fusion protein [10])	Kd [11]	koff [11]	kon [11]	ELISA fold over background [12]	ELISA fold over background [13]	ELISA fold over background (S1 Fc fusion protein [14])
SARS-CoV-2 variant 1-27 (antibody, V domains shown) VH: EVQLLESGGGLVQPGGSLRLSCAASGFTFSSYAMTWVRQAPGKGLEWVSAISGSGGGTYYADSVKGRFTISRDNSKNTLYLQMNSLRAEDTAVYYCASSSSWQFDYWGQGTLVTVSS VL: QSALTQPASVSGSPGQSITISCTGTSSYVGHYNLVSWYQQHPGKAPKLMIYEGSRRPSGVSNRFSGSKSGNTASLTISGLQAEDEADYYCCSYAGSYTHYVFGGGTKLTVL	1.6 fold	1.3 fold	1.9 fold	1.6 fold	1.3 fold	1.9 fold											
SARS-CoV-2 variant 1-7 (antibody, V domains shown) VH: EVQLLESGGGLVQPGGSLRLSCAASGFTFSSYDMSWVRQAPGKGLEWVSVISGSGGSTYYADSVKGRFTISRDNSKNTLYLQMNSLRAEDTAVYYCAKGPLVGWYFDLWGQGTLVTVSS VL: QSALTQPASVSGSPGQSITISCTGTSSDFGSYNLVSWYQQHPGKAPKLMIYEGNKRPSGVSNRFSGSKSGNTASLTISGLQAEDEADYYCCSYAGSSTFVVFGGGTKLTVL	1.6 fold	1.7 fold	3.3 fold	1.6 fold	1.7 fold	3.3 fold											
SARS-CoV-2 variant 1-10 (antibody, V domains shown) VH: EVQLLESGGGLVQPGGSLRLSCAASGFTFSSYDMSWVRQAPGKGLEWVSVISGSGGSTYYADSVKGRFTISRDNSKNTLYLQMNSLRAEDTAVYYCAKGPLVGWYFDLWGQGTLVTVSS VL: QSALTQPASVSGSPGQSITISCTGTSSNVGSYNLVSWYQQHPGKAPKLMIYEGTKRPSGVSNRFSGSKSGNTASLTISGLQAEDEADYYCCSYAGSSSFVVFGGGTKLTVL	1.1 fold	1.3 fold	17.4 fold	1.1 fold	1.3 fold	17.4 fold											
SARS-CoV-2 variant 1-36 (antibody, V domains shown) VH: EVQLLESGGGLVQPGGSLRLSCAASGLTFSSYAMSWVRQAPGKGLEWVSDISGSGGSTYYADSVKGRFTISRDNSKNTLYLQMNSLRAEDTAVYYCVKGTIPIFGVIRSAFDYWGQGTLVTVSS VL: QSALTQPASVSGSPGQSITISCTGTSSDVGSYSLVSWYQQHPGKAPKLMIYEGDKRPSGVSNRFSGSKSGNTASLTISGLQAEDEADYYCCSYAGSYSYVVFGGGTKLTVL	0.8 fold	1.1 fold	1.2 fold	0.8 fold	1.1 fold	1.2 fold											
SARS-CoV-2 variant 1-35 (antibody, V domains shown) VH: EVQLLESGGGLVQPGGSLRLSCAASGFTFSNYAMSWVRQAPGKGLEWVSDISGSGGSTYYADSVKGRFTISRDNSKNTLYLQMNSLRAEDTAVYYCVKGTIPIFGVIRSAFDYWGQGTLVTVSS VL: QSALTQPASVSGSPGQSITISCTGTSSDVGSYSLVSWYQQHPGKAPKLMIYEGTKRPSGVSNRFSGSKSGNTASLTISGLQAEDEADYYCCSYAGSYSYVVFGGGTKLTVL	1.6 fold	1.4 fold	1.8 fold	1.6 fold	1.4 fold	1.8 fold											
SARS-CoV-2 S1 variant 2-5 (antibody, V domains shown) VH: EVQLLESGGGLVQPGGSLRLSCAASGFTFSDFAMAWVRQAPGKGLEWVSAISGSGDITYYADSVKGRFTISRDNSKNTLYLQMNSLRAEDTAVYYCAREADGLHSPWHFDLWGQGTLVTVSS VL: DIQMTQSPSSLSASVGDRVTITCRASQSIHTYLNWYQQKPGKAPKLLIYAASALASGVPSRFSGSGSGTDFTLTISSLQPEDFATYYCQQSYSAPPYTFGQGTKVEIK							0.000259 s⁻¹	93900 M⁻¹ s⁻¹	1.1 fold	35.9 fold	24.3 fold	2.8 nM	0.000259 s⁻¹	93900 M⁻¹ s⁻¹	1.1 fold	35.9 fold	24.3 fold
SARS-CoV-2 variant 1-25 (antibody, V domains shown) VH: EVQLLESGGGLVQPGGSLRLSCAASGFTFSDYAMNWVRQAPGKGLEWVSIISGSGGSTYYADSVKGRFTISRDNSKNTLYLQMNSLRAEDTAVYYCAREGYRDYLWYFDLWGQGTLVTVSS VL: QSALTQPASVSGSPGQSITISCSGTSSDVGSYNLVSWYQQHPGKAPKLMIYEASKRPSGVSNRFSGSKSGNTASLTISGLQAEDEADYYCCSYAGSSTVFGGGTKLTVL	0.8 fold	1 fold	2.7 fold	0.8 fold	1 fold	2.7 fold											
SARS-CoV-2 variant 1-24 (antibody, V domains shown) VH: EVQLLESGGGLVQPGGSLRLSCAASGFTFSSYAMNWVRQAPGKGLEWVSIISGSGGSTYYADSVKGRFTISRDNSKNTLYLQMNSLRAEDTAVYYCAREGYRDYLWYFDLWGQGTLVTVSS VL: QSALTQPASVSGSPGQSITISCTGTSSDVGYYNLVSWYQQHPGKAPKLMIYEGNKRPSGVSNRFSGSKSGNTASLTISGLQAEDEADYYCCSYAGGSVVFGGGTKLTVL	1.3 fold	1.1 fold	11 fold	1.3 fold	1.1 fold	11 fold											
SARS-CoV-2 variant 1-23 (antibody, V domains shown) VH: EVQLLESGGGLVQPGGSLRLSCAASGFTFSSYAISWVRQAPGKGLEWVSIISGSGGSTYYADSVKGRFTISRDNSKNTLYLQMNSLRAEDTAVYYCAREGYRDYLWYFDLWGQGTLVTVSS VL: QSALTQPASVSGSPGQSITISCTGTSNDVGSYNLVSWYQQHPGKAPKLMIYEGNKRPSGVSNRFSGSKSGNTASLTISGLQAEDEADYYCCSYAGSYTVFGGGTKLTVL	1.6 fold	1.6 fold	3.6 fold	1.6 fold	1.6 fold	3.6 fold											
SARS-CoV-2 S1 variant 2-2 (antibody, V domains shown) VH: EVQLLESGGGLVQPGGSLRLSCAASGFTFSRHAMNWVRQAPGKGLEWVSGISGSGDETYYADSVKGRFTISRDNSKNTLYLQMNSLRAEDTAVYYCARDLPASYYDSSGYYWHNGMDVWGQGTLVTVSS VL: DIQMTQSPSSLSASVGDRVTITCRASQTINTYLNWYQQKPGKAPKLLIYSASTLQSGVPSRFSGSGSGTDFTLTISSLQPEDFATYYCQQSYSTFTFGQGTKVEIK							0.000906 s⁻¹	77400 M⁻¹ s⁻¹	1.1 fold	39.6 fold	4.7 fold	11.7 nM	0.000906 s⁻¹	77400 M⁻¹ s⁻¹	1.1 fold	39.6 fold	4.7 fold
SARS-CoV-2 variant 1-48 (antibody, V domains shown) VH: EVQLLESGGGLVQPGGSLRLSCAASGFTFSSHAMYWVRQAPGKGLEWVSAISGSAGSTYYADSVKGRFTISRDNSKNTLYLQMNSLRAEDTAVYYCAHDTKDFWSGYCIFDPWGQGTLVTVSS VL: QSALTQPASVSGSPGQSITISCTGTSSDIGSYNLVSWYQQHPGKAPKLMIYEGTKRPSGVSNRFSGSKSGNTASLTISGLQAEDEADYYCCSYAGSRTYVFGGGTKLTVL	0.8 fold	0.8 fold	2.1 fold	0.8 fold	0.8 fold	2.1 fold											

From patent US20210355194A1 (TWIST BIOSCIENCE, published 2021)
